Values of other authors as cited in publication PMC9760430, “A stapled chromogranin A-derived peptide homes in on tumors that express αvβ6 or αvβ8 integrins” (International Journal of Biological Sciences, 2023).

Columns and labels:
[1] = biological target: integrin αvβ8 (Homo sapiens) (UniProt P06756); details: cited from earlier work
[2] = biological target: integrin αvβ6 (Homo sapiens) (UniProt P06756); details: cited from earlier work
Chain of integrin αvβ6 (Homo sapiens) (P06756 31-992, chain 1 of 2): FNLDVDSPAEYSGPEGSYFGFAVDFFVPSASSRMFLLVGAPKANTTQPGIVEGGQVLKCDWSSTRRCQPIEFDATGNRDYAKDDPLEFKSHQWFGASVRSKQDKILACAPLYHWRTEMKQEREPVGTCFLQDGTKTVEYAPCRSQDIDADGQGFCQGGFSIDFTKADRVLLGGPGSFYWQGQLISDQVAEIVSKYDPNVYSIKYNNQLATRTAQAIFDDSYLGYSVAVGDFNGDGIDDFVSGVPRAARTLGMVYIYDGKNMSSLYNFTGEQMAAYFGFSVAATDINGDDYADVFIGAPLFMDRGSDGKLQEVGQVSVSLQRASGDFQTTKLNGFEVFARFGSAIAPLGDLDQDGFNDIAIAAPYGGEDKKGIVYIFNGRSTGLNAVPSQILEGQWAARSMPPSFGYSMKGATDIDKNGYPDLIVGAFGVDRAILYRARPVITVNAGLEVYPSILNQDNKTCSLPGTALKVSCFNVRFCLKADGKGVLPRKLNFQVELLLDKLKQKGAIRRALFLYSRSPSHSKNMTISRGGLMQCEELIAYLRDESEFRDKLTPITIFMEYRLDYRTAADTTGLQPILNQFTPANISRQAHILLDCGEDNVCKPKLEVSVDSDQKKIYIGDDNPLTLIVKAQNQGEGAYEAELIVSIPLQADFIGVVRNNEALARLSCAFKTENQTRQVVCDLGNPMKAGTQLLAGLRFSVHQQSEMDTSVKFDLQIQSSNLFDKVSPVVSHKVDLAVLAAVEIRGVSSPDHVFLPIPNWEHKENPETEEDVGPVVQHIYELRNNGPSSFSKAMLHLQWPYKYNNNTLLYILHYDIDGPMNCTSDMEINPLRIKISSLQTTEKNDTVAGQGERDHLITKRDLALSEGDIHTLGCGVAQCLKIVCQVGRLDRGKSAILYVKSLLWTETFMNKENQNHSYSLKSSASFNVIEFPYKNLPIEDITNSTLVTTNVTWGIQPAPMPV
Chain of integrin αvβ6 (Homo sapiens) (P18564 22-709, chain 2 of 2, further chain): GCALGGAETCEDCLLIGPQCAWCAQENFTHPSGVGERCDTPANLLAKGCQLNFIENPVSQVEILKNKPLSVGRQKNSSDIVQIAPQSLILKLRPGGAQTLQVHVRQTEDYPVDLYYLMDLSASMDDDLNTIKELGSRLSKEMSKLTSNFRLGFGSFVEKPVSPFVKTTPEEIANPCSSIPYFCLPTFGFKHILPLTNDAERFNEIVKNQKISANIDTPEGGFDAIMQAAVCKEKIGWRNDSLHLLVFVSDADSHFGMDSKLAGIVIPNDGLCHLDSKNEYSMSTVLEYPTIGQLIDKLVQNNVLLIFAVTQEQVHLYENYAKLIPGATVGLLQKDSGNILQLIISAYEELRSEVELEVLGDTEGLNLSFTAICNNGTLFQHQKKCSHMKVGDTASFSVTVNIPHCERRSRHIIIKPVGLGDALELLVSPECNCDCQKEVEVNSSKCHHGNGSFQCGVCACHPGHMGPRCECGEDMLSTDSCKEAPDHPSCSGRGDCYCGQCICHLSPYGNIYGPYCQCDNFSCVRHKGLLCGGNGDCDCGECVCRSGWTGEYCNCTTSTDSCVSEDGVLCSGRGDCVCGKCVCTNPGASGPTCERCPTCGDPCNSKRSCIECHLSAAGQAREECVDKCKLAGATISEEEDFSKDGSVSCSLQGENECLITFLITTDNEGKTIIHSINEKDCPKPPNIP

Chain of chromogranin A-derived peptide 5 (P10645 57-81): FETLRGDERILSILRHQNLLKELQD
Chain of integrin αvβ8 (Homo sapiens) (P06756 31-992, chain 1 of 2): as the sequence (P06756 31-992, chain 1 of 2) above
Chain of integrin αvβ8 (Homo sapiens) (P26012 43-684, chain 2 of 2, further chain): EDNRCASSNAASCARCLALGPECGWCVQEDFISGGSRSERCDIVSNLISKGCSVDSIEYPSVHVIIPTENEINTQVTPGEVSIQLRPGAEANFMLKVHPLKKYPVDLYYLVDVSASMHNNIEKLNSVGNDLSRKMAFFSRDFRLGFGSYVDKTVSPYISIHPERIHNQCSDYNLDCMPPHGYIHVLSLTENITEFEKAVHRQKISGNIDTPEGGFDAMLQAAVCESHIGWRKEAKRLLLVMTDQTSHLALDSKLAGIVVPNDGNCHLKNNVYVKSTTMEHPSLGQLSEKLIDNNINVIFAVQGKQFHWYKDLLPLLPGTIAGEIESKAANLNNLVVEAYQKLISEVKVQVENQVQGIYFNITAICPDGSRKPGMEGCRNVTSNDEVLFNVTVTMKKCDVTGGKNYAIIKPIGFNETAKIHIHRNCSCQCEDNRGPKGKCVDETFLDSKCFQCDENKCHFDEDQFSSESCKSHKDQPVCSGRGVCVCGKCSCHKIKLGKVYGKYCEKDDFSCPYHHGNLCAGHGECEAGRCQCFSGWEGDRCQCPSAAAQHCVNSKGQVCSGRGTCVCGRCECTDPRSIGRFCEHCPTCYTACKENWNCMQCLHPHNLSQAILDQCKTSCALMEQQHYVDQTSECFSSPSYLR

## chromogranin A-derived peptide 5 (from UniProt P10645)
[1]
  Ki: 3.2 nM
[2]
  Ki: 0.6 nM
